± gives the uncertainty stated by the source.
B1: Nanos homolog 2, residues 63 to 115; numbered along this chain, P60321 (parent)
chain: CNFCKHNGESRHVYSSHQLKTPDGVVVCPILRHYVCPVCGATGDQAHTLKYCP

Variants of: B1
Experiment: abundance fitness (aPCA) (normalised: wild type 0, dead -1); higher = more abundant; growth selection in yeast, the domain comes from the species named
Conditions: Homo sapiens

Row | Variant | abundance fitness
1 | T48G | -0.226 ± 0.056
2 | T48D | -0.347 ± 0.18
3 | T48H | -0.363 ± 0.18
4 | T48I | -0.417 ± 0.22
5 | T48Q | -0.031 ± 0.11
6 | T48S | -0.19 ± 0.077
7 | T48M | -0.12 ± 0.11
8 | T48R | -0.247 ± 0.054
9 | T48V | -0.045 ± 0.079
10 | T48C | -0.158 ± 0.097
11 | T48A | -0.136 ± 0.077
12 | T48L | -0.224 ± 0.088
13 | T48F | -0.326 ± 0.073
14 | T48E | 0.091 ± 0.093
15 | T48K | 0.052 ± 0.12
16 | T48W | -0.284 ± 0.077
17 | Y51L | -0.137 ± 0.077
18 | Y51D | -0.381 ± 0.15
19 | Y51I | -0.34 ± 0.17
20 | Y51W | -0.237 ± 0.098
21 | Y51E | -0.368 ± 0.15
22 | Y51G | -0.193 ± 0.073
23 | Y51R | -0.258 ± 0.05
24 | Y51S | -0.104 ± 0.085

Row | Variant | abundance fitness
25 | Y51N | 0.075 ± 0.13
26 | Y51F | 0.097 ± 0.12
27 | Y51M | -0.203 ± 0.12
28 | Y51T | -0.097 ± 0.12
29 | Y51P | -0.287 ± 0.074
30 | Y51K | 0.024 ± 0.12
31 | Y51Q | -0.163 ± 0.11
32 | Y51V | -0.071 ± 0.067
33 | Y51C | -0.21 ± 0.11
34 | H47K | -0.616 ± 0.2
35 | H47M | -0.647 ± 0.12
36 | H47A | -0.431 ± 0.11
37 | H47T | -0.695 ± 0.24
38 | H47V | -0.628 ± 0.064
39 | H47I | -0.981 ± 0.17
40 | H47L | -0.735 ± 0.11
41 | H47G | -0.643 ± 0.067
42 | H47N | -0.591 ± 0.1
43 | H47S | -1.01 ± 0.29
44 | H47Y | -0.621 ± 0.23
45 | H47D | -0.463 ± 0.13
46 | H47Q | -0.739 ± 0.34
47 | H47R | -0.443 ± 0.12
48 | H47W | -0.781 ± 0.083

Row | Variant | abundance fitness
49 | H47P | -0.607 ± 0.19
50 | D44W | -0.429 ± 0.11
51 | D44T | -0.14 ± 0.075
52 | D44V | -0.299 ± 0.08
53 | D44Y | -0.55 ± 0.14
54 | D44S | -0.294 ± 0.097
55 | Q45A | -0.069 ± 0.077
56 | Q45E | -0.186 ± 0.09
57 | Q45V | -0.047 ± 0.067
58 | Q45F | -0.043 ± 0.26
59 | Q45M | 0.119 ± 0.13
60 | Q45Y | -0.168 ± 0.1
61 | Q45N | 0.085 ± 0.2
62 | Q45W | -0.368 ± 0.18
63 | Q45L | -0.037 ± 0.094
64 | Q45D | -0.015 ± 0.12
65 | Q45C | -0.186 ± 0.19
66 | Q45P | -0.429 ± 0.15
67 | Q45K | 0.024 ± 0.11
68 | Q45T | -0.074 ± 0.11
69 | Q45I | -0.214 ± 0.14
70 | Q45G | -0.003 ± 0.068
71 | Q45S | 0.039 ± 0.091
72 | A46Q | -0.587 ± 0.12

Row | Variant | abundance fitness
73 | A46V | -0.192 ± 0.1
74 | A46K | -0.349 ± 0.094
75 | A46S | -0.241 ± 0.13
76 | A46G | -0.133 ± 0.068
77 | A46H | -0.124 ± 0.28
78 | A46N | -0.694 ± 0.4
79 | A46C | -0.816 ± 0.25
80 | A46E | -0.202 ± 0.082
81 | A46M | -0.6 ± 0.15
82 | A46I | -0.308 ± 0.17
83 | A46L | -0.649 ± 0.11
84 | A46D | -0.426 ± 0.23
85 | A46P | -0.403 ± 0.13
86 | A46Y | -0.47 ± 0.12
87 | A46R | -0.322 ± 0.11
88 | A46W | -0.77 ± 0.22
89 | L49D | -0.046 ± 0.097
90 | L49V | 0.104 ± 0.067
91 | L49H | 0.169 ± 0.18
92 | L49P | 0.026 ± 0.12
93 | L49Q | 0.347 ± 0.16
94 | L49C | -0.368 ± 0.12
95 | L49R | 0.185 ± 0.065
96 | L49Y | 0.057 ± 0.15

From the Human Domainome abundance scans (Beltran et al. 2025)
